Test: yeast display, Sf9 membrane polyspecificity reagent, FACS + sequencing; frameworks hold sequencing errors
In short: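 A nanobody's polyreactivity label depends on the gate it was sorted from. Yeast display cells were stained with 10% biotinylated, detergent-solubilized Sf9 membrane reagent for 1 hour at 4 °C, enriched on streptavidin microbeads and sorted by FACS. The low and high (top ~1%) gates were set on anti-HA fluorescence for expression and streptavidin fluorescence for reagent binding.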

| Sequence | polyreactivity (PSR sort gate) |
| --- | --- |
| QVQLVESGGALDQAGGSLRVSCAASGSIFPIYTMGWYRQAPGKERELVAGIRYRGGNTYYADSVKGRFTISRDNAKNTVYLQMNSLNPEDTAVYYCAARAYYRYLYKLNYWGQGTQVTVSS | high polyreactivity |
| QVQLVESGGGLVQAGGSLRLSCAASGSTFDVNTMGWYRQAPGTERELVAAIRLRGGSTYYADSVKGRFTISRDNAKNTVYLQMNSLKPEDTAVYYCAADYTLIYDYWGQGTQVTVSS | low polyreactivity |
| QVQLVESGGGLVQAGGSLRLSCAASGRILYYNVMVWYRQAPGKERELVASNTSVVSTNYADSVKGRFTISRDNAKNTVYLHMNSLKPEDTAVYYCAARYFSGSFSDEIWGMDYWGQGTQVTVSS | high polyreactivity |
| QVQLVESGGGLVQAGGSLRLSCAASGSIFIYNAMGWYRQAPGKERELVAAISSSGGSTYYADSVKGRITISRDNAKNTVYLQMNSLKPEPTAVYYCAARTYYVRGLGGRPGMDYCGQGTQVTVSS | low polyreactivity |
| QVQLVESGGGLVQAGGSLRLSCAASGFIFPRYAMGWYRQAPGKERELVAAISYSGGSTYYADSVKGRFTISRDNAKNTVYLQMNSLKPEDTAVYYCNAYFLSQYQRAYRDDYWGQGTQVTVST | high polyreactivity |
| QVHLVESGGGLVQAGGSLRLSCAASGRILVQNDMGWYRQAPGKERELVAAIRSDGSTSYADSVKGRFTISRDNAKNTVYLQMNSLKPEDTAVYYCAARIDWTGGEYDYWGQGTQVTVSS | low polyreactivity |
| QVQLVESGGGLVQAGGSLRLSCAASGFTLGDNAMGWSRQAPGKERELVAAISGGGSSTYYADSVKGRFTISRDNAKNTVYLQMNSLKPEDTAVYYCAADYYFSTYYSRYYFWGQGTQVTVSS | low polyreactivity |
| QVQLVESGGGLVQAGGSLRLSCAASGLTFYYYTMGWYRQAPGKERELVAAIDNGGGTNYADSVKGRFTISRDNAKNTVYLQMNSLKPEDTAVYYCAADRSYYIIIGYDLFAYYYWGQGTQVTVSS | low polyreactivity |
| QVQLVESGGGLVQAGGSLRLSCAASGSTFSNYAMGWYRQAPGKERELVASISNGGSTNYADSVKGRFTISRDNAKNTVYLQMNSLKPEDTAVYNCNAESKAKYDYWGQGTQVTVSS | low polyreactivity |
| QVQLVESGGGLVQAGGSLRLSCAASGSIFTFYAMGWYRQAPGKERELVAAISYRGGSTYYADSVKGRFTISRDNAKNTVYLQMNSLKPEDTAVYYCAAARFPVFIQGYRMEYWGQGTQVTVSS | low polyreactivity |
| QVQLVESGGGLVQAGGSLRLSCAASGSTFYRYAMGWYRQAPGKERELVAAISSDGTTYYADSVKGRFTISRDNAKNTVYLQMNCLNPVDTAVYYCAKERSRYYPYDYWGQGTQVTVSS | high polyreactivity |
| QVQLQERGGGLVQTGGSLSLSCEASGTISYSDSMCWYRQAPRKERELVAAIARGGITNYAYSVKGRFTISRDNAKNTVYLQMNSLKPEDTAVYYCADLSSRYAQFDYWGQGTQVTVSS | low polyreactivity |
| QVQLVESGGGLVQAGGSLRLSCAASGSIFSSYVMGWYRQAPGKERELVAAMSRSGGSTYYADSVKGRFTISRDNAKNTVYLQMNSLKPEDTAVYYCAADWTRGSPGMDYWGQGTQVTVSS | high polyreactivity |
| QVQLVESGGGLVQAGGSLRLSCAASGFTFYLYTIGWYRQAPWKERELVATITSDGGTNYADSVKVRFTISRDNAKNTLYLQMNSLKPEDTAVYYCNAASRRGSRKQAKYDYWGQGTQVTVSS | low polyreactivity |
| QVQLVESGGGLVQAGGSLRLSCAASGRTFASNDMGWYRQAPGKERELVADINNGARTYYADSVKGRFTISRDNAKNTVYLQMNSLKPEDTAVYYCNTRSGFYLGDFDYWGQGTQVTVSS | high polyreactivity |
| QVQLVESGGGLVQAGGSLRISCAASGRIFGGYAMGWYRQAPGKERELVAAITSGARTKYADSVKGRFTISRDNAKNTVYLQMNSLKPEDTAVYYCAADGFYDGDYWGQGTQVTVSS | high polyreactivity |
| QVQLVESGGGLVQAGGSLRLSCASSGFTFYYSMGLYRQAPVKERELVASINYSGGSTYYADSVKGRFTISRDNGKNTLYLQMNSLKAEETGVYYCAVDVRPRGLMYYWGQGTQVTVSS | low polyreactivity |
